Data from article PMC6412877, “Novel Site-Specific Fatty Chain-Modified GLP-1 Receptor Agonist with Potent Antidiabetic Effects” (Molecules, 2019).
Ends that are not written are not given here. fatty chain = not defined here

target: Human GLP-1R (human) (UniProt P43220); test: not given
Sequence (P43220 24-463): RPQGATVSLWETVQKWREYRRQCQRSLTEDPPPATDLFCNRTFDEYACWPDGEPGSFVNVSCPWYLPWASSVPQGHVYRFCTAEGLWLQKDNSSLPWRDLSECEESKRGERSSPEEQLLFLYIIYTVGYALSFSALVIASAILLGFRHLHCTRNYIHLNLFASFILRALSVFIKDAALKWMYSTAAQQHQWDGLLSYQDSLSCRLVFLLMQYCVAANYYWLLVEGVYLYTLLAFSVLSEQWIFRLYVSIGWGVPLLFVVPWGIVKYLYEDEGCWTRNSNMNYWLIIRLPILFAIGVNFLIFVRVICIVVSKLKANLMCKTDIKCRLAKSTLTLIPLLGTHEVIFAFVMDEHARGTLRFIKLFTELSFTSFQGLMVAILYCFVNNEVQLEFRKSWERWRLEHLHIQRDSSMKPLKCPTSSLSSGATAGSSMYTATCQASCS

**Q.** For FFYSSPSAKLETGGPSSGAPPPS [PEP13], which EC50 (nM), Human GLP-1R activation, in vitro cell assay is on record?
**A.** 0.064 nM

**Q.** And the Emax (%), Human GLP-1R activation, in vitro cell assay?
**A.** 96%

**Q.** FFYSSPSAYLEKGGPSSGAPPPS [PEP16] was tested. Which EC50 (nM), Human GLP-1R activation, in vitro cell assay did it give?
**A.** 0.111 nM

**Q.** What about the Emax (%), Human GLP-1R activation, in vitro cell assay of the same binder?
**A.** 92%

**Q.** Which EC50 (nM), Human GLP-1R activation, in vitro cell assay does the source give for FFYSSPSAK(fatty chain)LETGGPSSGAPPPS (reading uncertain; also: fatty chain not given here) [PEP17] here?
**A.** 0.412 nM

**Q.** And the Emax (%), Human GLP-1R activation, in vitro cell assay?
**A.** 79%

**Q.** FFYSSPSAYLEK(fatty chain)GGPSSGAPPPS (reading uncertain; also: fatty chain not given here) [PEP20] was tested. Which EC50 (nM), Human GLP-1R activation, in vitro cell assay did it give?
**A.** 0.062 nM

**Q.** What about the Emax (%), Human GLP-1R activation, in vitro cell assay of the same binder?
**A.** 98%

**Q.** What does the source list for FFYSSPSAYLK(fatty chain)TGGPSSGAPPPS (reading uncertain; also: fatty chain not given here) [PEP19]?
**A.** EC50 (nM), Human GLP-1R activation, in vitro cell assay: 0.152 nM; Emax (%), Human GLP-1R activation, in vitro cell assay: 89%

**Q.** Which results are given for FFYSSPSAYKETGGPSSGAPPPS [PEP14]?
**A.** EC50 (nM), Human GLP-1R activation, in vitro cell assay: 0.051 nM; Emax (%), Human GLP-1R activation, in vitro cell assay: 105%

**Q.** What does the source list for FFYSSPSAYLKTGGPSSGAPPPS [PEP15]?
**A.** EC50 (nM), Human GLP-1R activation, in vitro cell assay: 0.451 nM; Emax (%), Human GLP-1R activation, in vitro cell assay: 78%

**Q.** For FFYSSPSAYK(fatty chain)ETGGPSSGAPPPS (reading uncertain; also: fatty chain not given here) [PEP18], which EC50 (nM), Human GLP-1R activation, in vitro cell assay is on record?
**A.** 0.391 nM

**Q.** And the Emax (%), Human GLP-1R activation, in vitro cell assay?
**A.** 78%

target: Mouse GLP-1R (mouse) (UniProt O35659); test: not given
Sequence (O35659 22-463): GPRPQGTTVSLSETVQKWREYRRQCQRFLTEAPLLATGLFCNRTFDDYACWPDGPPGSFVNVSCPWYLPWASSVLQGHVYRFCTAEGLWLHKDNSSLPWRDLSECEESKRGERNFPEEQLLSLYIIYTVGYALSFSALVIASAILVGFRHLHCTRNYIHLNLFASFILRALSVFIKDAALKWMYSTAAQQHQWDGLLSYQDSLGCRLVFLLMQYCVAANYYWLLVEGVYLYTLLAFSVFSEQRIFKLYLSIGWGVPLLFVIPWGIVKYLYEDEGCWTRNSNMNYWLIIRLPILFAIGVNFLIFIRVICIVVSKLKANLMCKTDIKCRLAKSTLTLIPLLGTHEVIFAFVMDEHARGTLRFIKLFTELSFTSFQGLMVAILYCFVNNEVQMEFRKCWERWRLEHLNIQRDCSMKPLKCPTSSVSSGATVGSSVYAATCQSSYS

**Q.** What does the source list for FFYSSPSAKLETGGPSSGAPPPS [PEP13]?
**A.** EC50 (nM), Mouse GLP-1R activation, in vitro cell assay: 0.051 nM; Emax (%), Mouse GLP-1R activation, in vitro cell assay: 110%

**Q.** With FFYSSPSAYLEKGGPSSGAPPPS [PEP16] as the binder, how does the EC50 (nM), Mouse GLP-1R activation, in vitro cell assay read?
**A.** 0.101 nM

**Q.** And the Emax (%), Mouse GLP-1R activation, in vitro cell assay?
**A.** 93%

**Q.** For FFYSSPSAK(fatty chain)LETGGPSSGAPPPS (reading uncertain; also: fatty chain not given here) [PEP17], which EC50 (nM), Mouse GLP-1R activation, in vitro cell assay is on record?
**A.** 0.678 nM

**Q.** What about the Emax (%), Mouse GLP-1R activation, in vitro cell assay of the same binder?
**A.** 68%

**Q.** With FFYSSPSAYLEK(fatty chain)GGPSSGAPPPS (reading uncertain; also: fatty chain not given here) [PEP20] as the binder, how does the EC50 (nM), Mouse GLP-1R activation, in vitro cell assay read?
**A.** 0.051 nM

**Q.** And the Emax (%), Mouse GLP-1R activation, in vitro cell assay?
**A.** 99%

**Q.** What does the source list for FFYSSPSAYLK(fatty chain)TGGPSSGAPPPS (reading uncertain; also: fatty chain not given here) [PEP19]?
**A.** EC50 (nM), Mouse GLP-1R activation, in vitro cell assay: 0.212 nM; Emax (%), Mouse GLP-1R activation, in vitro cell assay: 83%

**Q.** Which results are given for FFYSSPSAYKETGGPSSGAPPPS [PEP14]?
**A.** EC50 (nM), Mouse GLP-1R activation, in vitro cell assay: 0.034 nM; Emax (%), Mouse GLP-1R activation, in vitro cell assay: 150%

**Q.** Which results are given for FFYSSPSAYLKTGGPSSGAPPPS [PEP15]?
**A.** EC50 (nM), Mouse GLP-1R activation, in vitro cell assay: 0.457 nM; Emax (%), Mouse GLP-1R activation, in vitro cell assay: 73%

**Q.** How did the EC50 (nM), Mouse GLP-1R activation, in vitro cell assay turn out when FFYSSPSAYK(fatty chain)ETGGPSSGAPPPS (reading uncertain; also: fatty chain not given here) [PEP18] was run?
**A.** 0.351 nM

**Q.** And the Emax (%), Mouse GLP-1R activation, in vitro cell assay?
**A.** 78%

target: Glucagon-like peptide-1 receptor extracellular domain; test: SPR; Biacore 8K, according to the user's manual; who was immobilised and the conditions are not stated

**Q.** For FFYSSPSAKLETGGPSSGAPPPS [PEP13], which Kd is on record?
**A.** 98 nM

**Q.** For FFYSSPSAYLEKGGPSSGAPPPS [PEP16], which Kd is on record?
**A.** 23 nM

**Q.** For FFYSSPSAK(fatty chain)LETGGPSSGAPPPS (reading uncertain; also: fatty chain not given here) [PEP17], which Kd is on record?
**A.** 158 nM

**Q.** Which Kd does the source give for FFYSSPSAYLEK(fatty chain)GGPSSGAPPPS (reading uncertain; also: fatty chain not given here) [PEP20] here?
**A.** 25 nM

**Q.** For FFYSSPSAYLK(fatty chain)TGGPSSGAPPPS (reading uncertain; also: fatty chain not given here) [PEP19], which Kd is on record?
**A.** 91 nM

**Q.** Which Kd does the source give for FFYSSPSAYKETGGPSSGAPPPS [PEP14] here?
**A.** 53 nM

**Q.** With FFYSSPSAYLKTGGPSSGAPPPS [PEP15] as the binder, how does the Kd read?
**A.** 33 nM

**Q.** Which Kd does the source give for KQYSSPTAWLVGGPSSGAPPPS [PEP09] here?
**A.** 253 nM

**Q.** How did the Kd turn out when FFYSSPSAYK(fatty chain)ETGGPSSGAPPPS (reading uncertain; also: fatty chain not given here) [PEP18] was run?
**A.** 62 nM

target: Glucagon-like peptide-1 receptor extracellular domain; test: as above; remark: another data set of the same source

**Q.** For FFYSSPSAYLEKGGPSSGAPPPS [PEP16], which Kd is on record?
**A.** 25 nM
